For the test, the target named is Kapβ2 (untagged, GST removed) (human) (UniProt Q92973). The test can be described thus: ITC; 10 μM Kapβ2 in the cell, 100 μM or 200 μM MBP-FUS protein in the syringe; 20 mM Tris–HCl, 150 mM NaCl, 10% glycerol, 2 mM BME; 20 °C; single class of binding sites, global analysis of duplicates or triplicates. In general terms: In ITC the heat of successive injections is recorded.
Sequence of Kapβ2 (untagged, GST removed) (human) (Q92973 9-898): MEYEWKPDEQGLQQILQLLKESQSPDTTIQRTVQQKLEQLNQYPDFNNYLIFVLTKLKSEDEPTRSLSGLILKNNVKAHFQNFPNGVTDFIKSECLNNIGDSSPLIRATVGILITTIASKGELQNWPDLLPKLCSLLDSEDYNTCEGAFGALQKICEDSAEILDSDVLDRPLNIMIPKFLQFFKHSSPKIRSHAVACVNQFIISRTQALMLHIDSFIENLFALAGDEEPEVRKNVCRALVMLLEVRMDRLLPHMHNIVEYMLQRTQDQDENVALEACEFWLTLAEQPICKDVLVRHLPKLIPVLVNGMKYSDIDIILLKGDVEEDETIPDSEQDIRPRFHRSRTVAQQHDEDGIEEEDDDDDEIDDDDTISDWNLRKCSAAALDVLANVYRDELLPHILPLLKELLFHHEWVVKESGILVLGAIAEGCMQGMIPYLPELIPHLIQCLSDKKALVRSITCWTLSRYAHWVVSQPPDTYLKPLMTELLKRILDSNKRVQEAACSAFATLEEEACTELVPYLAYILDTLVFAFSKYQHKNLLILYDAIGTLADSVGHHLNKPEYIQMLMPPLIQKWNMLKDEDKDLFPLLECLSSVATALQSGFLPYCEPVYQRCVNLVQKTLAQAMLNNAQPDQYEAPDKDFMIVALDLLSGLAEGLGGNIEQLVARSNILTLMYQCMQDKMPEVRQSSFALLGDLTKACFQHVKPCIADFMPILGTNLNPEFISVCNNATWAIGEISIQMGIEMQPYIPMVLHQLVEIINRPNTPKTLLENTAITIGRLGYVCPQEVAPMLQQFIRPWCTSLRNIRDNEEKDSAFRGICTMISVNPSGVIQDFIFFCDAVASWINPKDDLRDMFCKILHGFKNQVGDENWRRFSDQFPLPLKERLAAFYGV

In the case of “MBP-FUS(453–500) (RGG3) (from UniProt P35637 453-500) (domain or fragment)”, the Kd came to 6 µM.

A word on the Kd: it is the concentration at which binding is half-saturated.
